{"source": "the supplement of paper PMC10567573", "parents": {"B1": {"name": "ANKRD40 (parent)", "chain": "SLRENDFIEIELDRQELTYQELLR"}}, "data": [{"variants_of": "B1", "assay": "protein stability index of a GFP-peptide fusion (GPS, HEK-293T) (PSI 1-6); higher = more stable", "details": "c terminus: a fixed tail appended", "values": [{"variant": "SLRENDFIEIELDRQELTYRELLR", "note": "[Q20R]", "protein stability index": 2.3}, {"variant": "SLRENDFIEIELDRQELTYFELLR", "note": "[Q20F]", "protein stability index": 1.99}, {"variant": "SLRENDFIEIELDRQELTYWELLR", "note": "[Q20W]", "protein stability index": 2.25}, {"variant": "SLRENDFIEIELDRQELTYAELLR", "note": "[Q20A]", "protein stability index": 2.72}, {"variant": "SLRENDFIEIELDRQELTYQQLLR", "note": "[E21Q]", "protein stability index": 3.34}, {"variant": "SLRENDFIEIELDRQELTYQSLLR", "note": "[E21S]", "protein stability index": 2.71}, {"variant": "SLRENDFIEIELDRQELTYQKLLR", "note": "[E21K]", "protein stability index": 2.67}, {"variant": "SLRENDFIEIELDRQELTYQHLLR", "note": "[E21H]", "protein stability index": 2.76}, {"variant": "SLRENDFIEIELDRQELTYQALLR", "note": "[E21A]", "protein stability index": 2.44}, {"variant": "SLRENDFIEIELDRQELTYQTLLR", "note": "[E21T]", "protein stability index": 2.09}, {"variant": "SLRENDFIEIELDRHELTYQELLR", "note": "[Q15H]", "protein stability index": 2.75}, {"variant": "SLRENDFIEIELDRVELTYQELLR", "note": "[Q15V]", "protein stability index": 2.44}, {"variant": "SLRENDFIEIELDRAELTYQELLR", "note": "[Q15A]", "protein stability index": 2.63}, {"variant": "SLRENDFIEIELDRGELTYQELLR", "note": "[Q15G]", "protein stability index": 3.68}, {"variant": "SLRENDFIEIELDRSELTYQELLR", "note": "[Q15S]", "protein stability index": 3.17}, {"variant": "SLRENDFIEIELDRIELTYQELLR", "note": "[Q15I]", "protein stability index": 1.89}, {"variant": "SLRENDFIEIELDRYELTYQELLR", "note": "[Q15Y]", "protein stability index": 2}, {"variant": "SLRENDFIEIELDRCELTYQELLR", "note": "[Q15C]", "protein stability index": 2.62}, {"variant": "SLRENDDIEIELDRQELTYQELLR", "note": "[F7D]", "protein stability index": 4.24}, {"variant": "SLRENDNIEIELDRQELTYQELLR", "note": "[F7N]", "protein stability index": 4.05}, {"variant": "SLRENDTIEIELDRQELTYQELLR", "note": "[F7T]", "protein stability index": 3.99}, {"variant": "SLRENDQIEIELDRQELTYQELLR", "note": "[F7Q]", "protein stability index": 4.17}, {"variant": "SLRENDIIEIELDRQELTYQELLR", "note": "[F7I]", "protein stability index": 2.91}, {"variant": "SLRENDFIEIELDNQELTYQELLR", "note": "[R14N]", "protein stability index": 3.54}, {"variant": "SLRENDFIEIELDWQELTYQELLR", "note": "[R14W]", "protein stability index": 1.79}, {"variant": "SLRENDFIEIELDMQELTYQELLR", "note": "[R14M]", "protein stability index": 1.85}, {"variant": "SLRENDFIEIELDAQELTYQELLR", "note": "[R14A]", "protein stability index": 2.87}, {"variant": "SLRENDFIEIELDSQELTYQELLR", "note": "[R14S]", "protein stability index": 3.06}, {"variant": "SLRENDFIEIELDDQELTYQELLR", "note": "[R14D]", "protein stability index": 3.85}, {"variant": "SLRENDFIEIELDRQELTMQELLR", "note": "[Y19M]", "protein stability index": 3.22}, {"variant": "SLRENDFIEIELDRQELTAQELLR", "note": "[Y19A]", "protein stability index": 4.12}, {"variant": "SLRENDFIEIELDRQELTEQELLR", "note": "[Y19E]", "protein stability index": 4.6}, {"variant": "SLRENDFIEIELDRQELTWQELLR", "note": "[Y19W]", "protein stability index": 2.61}, {"variant": "SLRENDFIEIELDRQELTPQELLR", "note": "[Y19P]", "protein stability index": 4.43}, {"variant": "SLRENDFIEIDLDRQELTYQELLR", "note": "[E11D]", "protein stability index": 3.59}, {"variant": "SLRENDFIEIFLDRQELTYQELLR", "note": "[E11F]", "protein stability index": 2.28}, {"variant": "SLRENDFIEINLDRQELTYQELLR", "note": "[E11N]", "protein stability index": 3.33}, {"variant": "SLRENDFIEIRLDRQELTYQELLR", "note": "[E11R]", "protein stability index": 2.44}, {"variant": "SLRENDFIEIMLDRQELTYQELLR", "note": "[E11M]", "protein stability index": 2.41}, {"variant": "SLRENDFIEILLDRQELTYQELLR", "note": "[E11L]", "protein stability index": 1.94}, {"variant": "SLRENDFIEIKLDRQELTYQELLR", "note": "[E11K]", "protein stability index": 2.45}, {"variant": "SLRENDFIEIHLDRQELTYQELLR", "note": "[E11H]", "protein stability index": 2.68}, {"variant": "SLRENDFIEPELDRQELTYQELLR", "note": "[I10P]", "protein stability index": 4.24}, {"variant": "SLRENDFIECELDRQELTYQELLR", "note": "[I10C]", "protein stability index": 3.69}, {"variant": "SLRENDFIEEELDRQELTYQELLR", "note": "[I10E]", "protein stability index": 4.63}, {"variant": "SLRENDFIEAELDRQELTYQELLR", "note": "[I10A]", "protein stability index": 4.02}, {"variant": "SLRENDFIESELDRQELTYQELLR", "note": "[I10S]", "protein stability index": 3.68}, {"variant": "SLRENDFIEHELDRQELTYQELLR", "note": "[I10H]", "protein stability index": 4.34}, {"variant": "SLRENDFIQIELDRQELTYQELLR", "note": "[E9Q]", "protein stability index": 2.51}, {"variant": "SLRENDFICIELDRQELTYQELLR", "note": "[E9C]", "protein stability index": 2.17}, {"variant": "SLRENDFIDIELDRQELTYQELLR", "note": "[E9D]", "protein stability index": 3.47}, {"variant": "SLRENDFIPIELDRQELTYQELLR", "note": "[E9P]", "protein stability index": 3.59}, {"variant": "SLRENDFIKIELDRQELTYQELLR", "note": "[E9K]", "protein stability index": 2.4}, {"variant": "SLRENDFILIELDRQELTYQELLR", "note": "[E9L]", "protein stability index": 2.14}, {"variant": "SLRENDFTEIELDRQELTYQELLR", "note": "[I8T]", "protein stability index": 4.23}, {"variant": "SLRENDFAEIELDRQELTYQELLR", "note": "[I8A]", "protein stability index": 3.83}, {"variant": "SLRENDFEEIELDRQELTYQELLR", "note": "[I8E]", "protein stability index": 4.46}, {"variant": "SLRENDFLEIELDRQELTYQELLR", "note": "[I8L]", "protein stability index": 3.77}, {"variant": "SLRENDFYEIELDRQELTYQELLR", "note": "[I8Y]", "protein stability index": 3.28}, {"variant": "SLRENDFFEIELDRQELTYQELLR", "note": "[I8F]", "protein stability index": 2.56}, {"variant": "SLRENDFREIELDRQELTYQELLR", "note": "[I8R]", "protein stability index": 3.89}, {"variant": "SLRENDFQEIELDRQELTYQELLR", "note": "[I8Q]", "protein stability index": 4.23}, {"variant": "SLHENDFIEIELDRQELTYQELLR", "note": "[R3H]", "protein stability index": 3.08}, {"variant": "SLKENDFIEIELDRQELTYQELLR", "note": "[R3K]", "protein stability index": 3.23}, {"variant": "SLNENDFIEIELDRQELTYQELLR", "note": "[R3N]", "protein stability index": 3.06}, {"variant": "SLSENDFIEIELDRQELTYQELLR", "note": "[R3S]", "protein stability index": 3.54}, {"variant": "SLMENDFIEIELDRQELTYQELLR", "note": "[R3M]", "protein stability index": 2.54}, {"variant": "SLWENDFIEIELDRQELTYQELLR", "note": "[R3W]", "protein stability index": 2.26}, {"variant": "SWRENDFIEIELDRQELTYQELLR", "note": "[L2W]", "protein stability index": 2.73}, {"variant": "SYRENDFIEIELDRQELTYQELLR", "note": "[L2Y]", "protein stability index": 2.68}, {"variant": "SFRENDFIEIELDRQELTYQELLR", "note": "[L2F]", "protein stability index": 2.36}, {"variant": "SGRENDFIEIELDRQELTYQELLR", "note": "[L2G]", "protein stability index": 3.02}, {"variant": "SNRENDFIEIELDRQELTYQELLR", "note": "[L2N]", "protein stability index": 2.89}, {"variant": "SLREYDFIEIELDRQELTYQELLR", "note": "[N5Y]", "protein stability index": 2.75}, {"variant": "SLRELDFIEIELDRQELTYQELLR", "note": "[N5L]", "protein stability index": 2.14}, {"variant": "SLREEDFIEIELDRQELTYQELLR", "note": "[N5E]", "protein stability index": 2.78}, {"variant": "SLRECDFIEIELDRQELTYQELLR", "note": "[N5C]", "protein stability index": 2.48}, {"variant": "SLREWDFIEIELDRQELTYQELLR", "note": "[N5W]", "protein stability index": 1.72}, {"variant": "SLREGDFIEIELDRQELTYQELLR", "note": "[N5G]", "protein stability index": 3.03}, {"variant": "SLREVDFIEIELDRQELTYQELLR", "note": "[N5V]", "protein stability index": 2.4}, {"variant": "SLREFDFIEIELDRQELTYQELLR", "note": "[N5F]", "protein stability index": 2.2}, {"variant": "SLREIDFIEIELDRQELTYQELLR", "note": "[N5I]", "protein stability index": 2.33}, {"variant": "SLREDDFIEIELDRQELTYQELLR", "note": "[N5D]", "protein stability index": 2.82}, {"variant": "SLRENDFIEIELDRQEVTYQELLR", "note": "[L17V]", "protein stability index": 2.9}, {"variant": "SLRENDFIEIELDRQEYTYQELLR", "note": "[L17Y]", "protein stability index": 3.28}, {"variant": "SLRENDFIEIELDRQEWTYQELLR", "note": "[L17W]", "protein stability index": 3.1}, {"variant": "SLRENDFIEIELDRQEDTYQELLR", "note": "[L17D]", "protein stability index": 3.71}, {"variant": "SLRENDFIEIELDRQETTYQELLR", "note": "[L17T]", "protein stability index": 3.35}, {"variant": "SLRENDFIEIELDRQECTYQELLR", "note": "[L17C]", "protein stability index": 3.12}, {"variant": "SLRENDFIEIELDRQEGTYQELLR", "note": "[L17G]", "protein stability index": 3.3}, {"variant": "SLRENDFIEIELDRQELTYQECLR", "note": "[L22C]", "protein stability index": 3.58}, {"variant": "SLRENDFIEIELDRQELTYQEQLR", "note": "[L22Q]", "protein stability index": 4.02}, {"variant": "SLRENDFIEIELDRQELTYQEPLR", "note": "[L22P]", "protein stability index": 3.56}, {"variant": "SLRENDFIEIELDRQELTYQESLR", "note": "[L22S]", "protein stability index": 3.8}]}]}
